Laboratory results reported in US20250043302A1, “MUTATED HYDROXYPHENYLPYRUVATE DIOXYGENASE POLYPEPTIDE, AND CODING GENE AND USE THEREOF” (BEIJING DABEINONG BIOTECHNOLOGY CO., LTD., priority 2021, published 2025).

Tests used:
Assay type in all cases: in vivo
[1] = system: Arabidopsis thaliana T1 plants; assay: Mesotrione tolerance of transgenic Arabidopsis thaliana T1 plants (spray, bleached leaf area grade, damage score); design: Scores: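 damage score 0-100 computed as Σ(N×S)/(T×M)×100 over grades 0-3 with higher meaning more damage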; conditions: Table 12; for Classification and statistics of the grade of pesticide damage Grade 0: number of plants at grade 0; for Classification and statistics of the grade of pesticide damage Grade 1: number of plants at grade 1; for Classification and statistics of the grade of pesticide damage Grade 2: number of plants at grade 2; for Classification and statistics of the grade of pesticide damage Grade 3: number of plants at grade 3; for Scores: pesticide damage score
Outline: (§1)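 T1 transformants selected by glufosinate; 18-day-old plants, with empty-vector and wild-type controls, sprayed with topramezone (25–200 g ai/ha), isoxaflutole (35–280 g ai/ha) or mesotrione (52.5–420 g ai/ha), water as 0×. Bleached leaf area fraction scored at 7 DAT as grades 0–3.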

[2] = system: Arabidopsis thaliana T1 plants; assay: Topramezone tolerance of transgenic Arabidopsis thaliana T1 plants (spray, bleached leaf area grade, damage score); conditions: Table 10; for Classification and statistics of the grade of pesticide damage Grade 0: number of plants at grade 0; for Classification and statistics of the grade of pesticide damage Grade 1: number of plants at grade 1; for Classification and statistics of the grade of pesticide damage Grade 2: number of plants at grade 2; for Classification and statistics of the grade of pesticide damage Grade 3: number of plants at grade 3; for Scores: pesticide damage score
Outline: as §1

[3] = system: Arabidopsis thaliana T1 plants; assay: Isoxaflutole tolerance of transgenic Arabidopsis thaliana T1 plants (spray, bleached leaf area grade, damage score); conditions: Table 11; for Classification and statistics of the grade of pesticide damage Grade 0: number of plants at grade 0; for Classification and statistics of the grade of pesticide damage Grade 1: number of plants at grade 1; for Classification and statistics of the grade of pesticide damage Grade 2: number of plants at grade 2; for Classification and statistics of the grade of pesticide damage Grade 3: number of plants at grade 3; for Scores: pesticide damage score;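 on Scores: Weighted damage index from 0 to 100 where higher means more damage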
Outline: as §1

B1: HPPDm-4-02: nucleotide sequence encoding Avena sativa HPPD with A107 deletion+K351N+F372A+F383W; vector DBN11785 (nucleic acid)
DNA: ATGCCACCTACTCCAGCTACAGCTACTGGTGCTGCTGCTGCTGCCGTTACTCCTGAGCACGCTGCCAGGTCATTCCCCAGGGTGGTTCGCGTGAACCCCAGATCTGATAGGTTCCCAGTTCTGAGCTTCCACCATGTTGAGCTGTGGTGCGCTGATGCTGCTTCTGCTGCTGGCAGGTTCTCTTTCGCTCTTGGTGCTCCACTCGCTGCTAGATCTGATCTGTCTACAGGAAATAGCGCTCATGCCTCACTCCTGCTTCGCTCAGGTGCTTTGGCCTTCCTCTTCACCGCTCCATATGCTCCCCCACCTCAGGAGGCTACTGCTGCTGCTACAGCCTCCATTCCAAGCTTCTCAGCTGATGCCGCTAGAACCTTCGCTGCTGCTCATGGACTTGCCGTGAGGTCTGTTGGTGTTCGCGTGGCTGATGCTGCTGAGGCTTTCAGAGTTTCCGTTGCCGGCGGAGCTAGGCCAGCTTTCGCTCCTGCTGATTTGGGACATGGTTTCGGCCTGGCTGAGGTTGAGCTTTACGGTGACGTGGTTCTCCGCTTCGTGTCTTACCCAGATGAGACTGACCTGCCTTTCCTTCCCGGCTTCGAGAGAGTTTCCTCTCCTGGTGCCGTGGATTACGGCCTGACAAGGTTCGACCACGTGGTTGGAAACGTTCCCGAGATGGCTCCAGTGATCGATTACATGAAGGGCTTCCTTGGATTCCATGAGTTCGCCGAGTTCACTGCTGAGGACGTGGGAACCACTGAGTCCGGTTTGAACTCTGTGGTTCTCGCCAACAATTCTGAGGCTGTTTTGCTCCCTCTGAATGAGCCTGTGCATGGAACCAAGAGGAGAAGCCAGATTCAAACTTACCTGGAGTACCACGGTGGCCCTGGAGTTCAGCATATCGCCCTTGCTTCTAATGATGTGTTGCGCACACTCAGAGAGATGCGCGCCAGAACCCCCATGGGAGGTTTCGAGTTCATGGCCCCACCACAGGCTAAGTACTACGAGGGCGTTAGAAGGATTGCTGGAGACGTGTTGAGCGAGGAGCAGATCAATGAGTGCCAAGAGCTGGGTGTTCTTGTGGATAGGGATGACCAGGGCGTTCTGCTTCAAATTGCCACTAAGCCAGTGGGCGACCGCCCTACATTCTGGCTTGAGATGATTCAAAGAATCGGCTGCATGGAGAAGGATGAGGTTGGACAGGAGTACCAAAAGGGCGGATGCGGTGGCTTCGGAAAGGGTAACTTCAGCGAGTTGTTCAAGTCAATCGAGGACTACGAGAAGAGCCTCGAGGTGAAGCAGTCAGTGGTTGCCCAAAAGTCCTGA
modifications: HPPDm-4-02 Nucleotide Sequence
notes: vector DBN11785
With B1 as the molecule, how does the Resistance evaluation ([1]; mesotrione 210 g ai/ha (2×)) read?
The Resistance evaluation was “Highly resistant”.

And the “Classification and statistics of the grade of pesticide damage Grade 0” value ([1]; mesotrione 210 g ai/ha (2×))?
The value was 16.

And the “Classification and statistics of the grade of pesticide damage Grade 1” value ([1]; mesotrione 210 g ai/ha (2×))?
Its value is 0.

And the “Classification and statistics of the grade of pesticide damage Grade 2” value ([1]; mesotrione 210 g ai/ha (2×))?
Its value is 0.

What about the “Classification and statistics of the grade of pesticide damage Grade 3” value ([1]; mesotrione 210 g ai/ha (2×)) of the same molecule?
The value was 0.

And the Scores ([1]; mesotrione 210 g ai/ha (2×))?
Its Scores is 0.

And the Resistance evaluation ([1]; mesotrione 420 g ai/ha (4×))?
The Resistance evaluation was “Highly resistant”.

And the “Classification and statistics of the grade of pesticide damage Grade 0” value ([1]; mesotrione 420 g ai/ha (4×))?
Its value is 15.

What about the “Classification and statistics of the grade of pesticide damage Grade 1” value ([1]; mesotrione 420 g ai/ha (4×)) of the same molecule?
The value was 1.

And the “Classification and statistics of the grade of pesticide damage Grade 2” value ([1]; mesotrione 420 g ai/ha (4×))?
Its value is 0.

What about the “Classification and statistics of the grade of pesticide damage Grade 3” value ([1]; mesotrione 420 g ai/ha (4×)) of the same molecule?
Its value is 0.

And the Scores ([1]; mesotrione 420 g ai/ha (4×))?
The Scores was 2.

What about the Resistance evaluation ([2]; topramezone 100 g ai/ha (4×)) of the same molecule?
The Resistance evaluation was “Highly resistant”.

And the “Classification and statistics of the grade of pesticide damage Grade 0” value ([2]; topramezone 100 g ai/ha (4×))?
The value was 16.

What about the “Classification and statistics of the grade of pesticide damage Grade 1” value ([2]; topramezone 100 g ai/ha (4×)) of the same molecule?
Its value is 0.

What about the “Classification and statistics of the grade of pesticide damage Grade 2” value ([2]; topramezone 100 g ai/ha (4×)) of the same molecule?
The value was 0.

And the “Classification and statistics of the grade of pesticide damage Grade 3” value ([2]; topramezone 100 g ai/ha (4×))?
The value was 0.

And the Scores ([2]; topramezone 100 g ai/ha (4×))?
Its Scores is 0.

What about the Resistance evaluation ([2]; topramezone 200 g ai/ha (8×)) of the same molecule?
The Resistance evaluation was “Highly resistant”.

And the “Classification and statistics of the grade of pesticide damage Grade 0” value ([2]; topramezone 200 g ai/ha (8×))?
Its value is 16.

What about the “Classification and statistics of the grade of pesticide damage Grade 1” value ([2]; topramezone 200 g ai/ha (8×)) of the same molecule?
The value was 0.

What about the “Classification and statistics of the grade of pesticide damage Grade 2” value ([2]; topramezone 200 g ai/ha (8×)) of the same molecule?
Its value is 0.

What about the “Classification and statistics of the grade of pesticide damage Grade 3” value ([2]; topramezone 200 g ai/ha (8×)) of the same molecule?
Its value is 0.

What about the Scores ([2]; topramezone 200 g ai/ha (8×)) of the same molecule?
Its Scores is 0.

What about the Resistance evaluation ([3]; isoxaflutole 140 g ai/ha (2×)) of the same molecule?
Its Resistance evaluation is “Highly resistant”.

And the “Classification and statistics of the grade of pesticide damage Grade 0” value ([3]; isoxaflutole 140 g ai/ha (2×))?
The value was 16.

And the “Classification and statistics of the grade of pesticide damage Grade 1” value ([3]; isoxaflutole 140 g ai/ha (2×))?
The value was 0.

And the “Classification and statistics of the grade of pesticide damage Grade 2” value ([3]; isoxaflutole 140 g ai/ha (2×))?
The value was 0.

And the “Classification and statistics of the grade of pesticide damage Grade 3” value ([3]; isoxaflutole 140 g ai/ha (2×))?
Its value is 0.

What about the Scores ([3]; isoxaflutole 140 g ai/ha (2×)) of the same molecule?
The Scores was 0.

What about the Resistance evaluation ([3]; isoxaflutole 280 g ai/ha (4×)) of the same molecule?
The Resistance evaluation was “Highly resistant”.

And the “Classification and statistics of the grade of pesticide damage Grade 0” value ([3]; isoxaflutole 280 g ai/ha (4×))?
The value was 13.

What about the “Classification and statistics of the grade of pesticide damage Grade 1” value ([3]; isoxaflutole 280 g ai/ha (4×)) of the same molecule?
The value was 3.

And the “Classification and statistics of the grade of pesticide damage Grade 2” value ([3]; isoxaflutole 280 g ai/ha (4×))?
The value was 0.

What about the “Classification and statistics of the grade of pesticide damage Grade 3” value ([3]; isoxaflutole 280 g ai/ha (4×)) of the same molecule?
The value was 0.

What about the Scores ([3]; isoxaflutole 280 g ai/ha (4×)) of the same molecule?
Its Scores is 6.
